Measurements from the supplement of paper PMC9170038.

System: MS2 coat protein
Test: apparent KD of MS2 coat protein; designed switch direction (-1 OFF switch, 1 ON switch): 1; higher = weaker reporter binding
Summary of the method: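 The apparent KD reported per design is the median over clusters of curve fits to normalised cluster fluorescence. The RNA switches were transcribed on Illumina chips by stalled E. coli RNA polymerase. SNAP-549-labelled MS2 coat protein was titrated from 0.7 or 1.5 nM, doubling up to 3 µM, in Tris-HCl pH 7.5 buffer containing KCl, MgCl2, BSA, DTT, tRNA and Tween-20, with no input, 200 uM small-molecule ligand, or an oligonucleotide input.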

[1] = input ligand: microRNA oligo, concentration not stated
[2] = Eterna round: R95, input ligand: FMN 200 uM
[3] = Eterna round: R95, input ligand: microRNA oligo, concentration not stated
[4] = Eterna round: R95, input ligand: none

Row | Sequence | apparent KD of MS2 coat protein (input ligand: FMN 200 uM) | apparent KD of MS2 coat protein [1] | apparent KD of MS2 coat protein (input ligand: none) | apparent KD of MS2 coat protein [2] | apparent KD of MS2 coat protein [3] | apparent KD of MS2 coat protein [4]
1 | AGAUCAUGACGAGGAUAUGCCACAUGAGGAUCACCCAUGUAUGUGGUAGGACGCGUACGUCCAAAGCAGAAGGCGUCGUGGUCA [JL SSNG2 1.01] (Eterna round: R96, puzzle: Same State NG 2) | 17.2 nM | 28.5 nM | 55.5 nM |  |  | 
2 | AGUCCAGCGAAAGCUGGACAAAAGCAUGUACAUGAGGAUCACCCAUGUUCAUGUACAGGCUUUUUGCUCGUCUUAAA [JL mod - D95 - 8] (puzzle: Sensor for hsa-mir-208a) |  |  |  | 243 nM | 12.6 nM | 175 nM
3 | GGAGCCGGCACCGAGGAUAUUCAUAUUAAAACAUGAGGAUCACCCAUGUAGAGCGAAAGCUCUUGGGAGAAGGCGGAUCGGCUCG [Xeonanis - 28] (puzzle: Same State 2) |  |  |  | 34.1 nM | 672 nM | 1060 nM
4 | AUUCGUUUGAUAGGAUAUCACUUUACAUGAGGAUCACCCAUGUUCACCACGCUGGUUUCUUAUACUGAGAAGGAUCUUGAUGAC [JR_SSNG2_Sub010] (Eterna round: R96, puzzle: Same State NG 2) | 19.5 nM | 17.1 nM | 31.3 nM |  |  | 
5 | AUAAGGCAAGCUUUUUUCUCGUAGUGUAAACAUGAGGAUCACCCAUGUGCCCACCCUGGAUCUUUGGAUCGCAGAAC [Sobiisarre] (puzzle: Sensor for hsa-mir-208a) |  |  |  | 20.3 nM | 15.2 nM | 22.7 nM
6 | GUAGCAUACCGAGGAUAUUCAUAUUACAUGAGGAUCACCCAUGUUAUAGGUCGAUUACGACCUUGGGAGAAGGCGGAAUGCUAC [Xeonanis - 20 Mod32] (Eterna round: R96, puzzle: Same State NG 2) |  | 23 nM |  |  |  | 
7 | GGCUAUCGCGUACGAUAGCUUAAGCAUGUACAUGAGGAUCACCCAUGUCAUGUACAAGCUUUUUGCUCGGCUUAUUG (puzzle: Sensor for hsa-mir-208a) |  |  |  | 119 nM | 14.3 nM | 132 nM
8 | UUAAUAAAUCAAGGAUAUCACGUCGAAUAGACGUGAGAAGGUGAUCAUAACAUGAGGAUCACCCAUGUAUUACAUGAAUAUUAA [SSNG1/1-B1] (Eterna round: R96, puzzle: Same State NG 1) | 522 nM | 40 nM | 512 nM |  |  | 
9 | GGUCCAGCCUGAGCUGGACAAAAGCAUGUACAUGAGGAUCACCCAUGUCAUGUACAAGCUUUUUGCUCGUCAAAAGG [Mat - hsa-mir-208a - 102] (puzzle: Sensor for hsa-mir-208a) |  |  |  | 54.3 nM | 16 nM | 89.5 nM
10 | GUAGCAUACCGAGGAUAUUCAUAUAAUAAAUAAACAUGAGGAUCACCCAUGUGGCGAAAGCCUUGGGAGAAGGCGGAAUGCUAC [Xeonanis - 20 Mod55] (Eterna round: R96, puzzle: Same State NG 2) | 20.7 nM | 296 nM | 486 nM |  |  | 
11 | CGGACUCCCUUAGGAUAUGGGAAAGGAAGUGUACCAGAAGGAAGGGUUCCGAUCCUCCAACAUGAGGAUCACCCAUGUAUGAGG [PowerStrip SSNG 1.3] (Eterna round: R96, puzzle: Same State NG 1) | 16.3 nM | 21.3 nM | 22.6 nM |  |  | 
12 | CUUCGCGCCGCAGGAUAUGCCGACCCGUGUUGAGCAGAAGGGCGAGACAUGAGGAUCACCCAUGUCUAAAGAGCGCAUCAAUAA [Esedlaedbi] (Eterna round: R96, puzzle: Same State NG 1) | 23.1 nM | 18.9 nM | 45.9 nM |  |  | 
13 | AUAUGAGAAGCAGGAUAUGUGGAGAAGAAACAAACAGAAGGGUUUAUGGGACAACAUGAGGAUCACCCAUGUUCUCUGUGAUGA [AK SSNG1-V2-2] (Eterna round: R96, puzzle: Same State NG 1) | 52.5 nM | 44.3 nM | 59.2 nM |  |  | 
14 | UACAAUCUAUCUGAGGAUAUCAUGAAUAAAACAUGAGGAUCACCCAUGUGCAGGAUAACUGCAAAUGAGAAGGCAGAUAGAUUGU [Mat - Same State 2 - Mod - D8] (puzzle: Same State 2) |  |  |  | 13.5 nM | 16 nM | 24.1 nM
15 | AGCCGAGACACAGGAUAUAGAUGUCUACAUGAGGAUCACCCAUGUAGCAACACGUGGUAGUGAUUCUAGAAGGGUGCUCGGCGC [Omei SS(NG)2 Cv10] (Eterna round: R96, puzzle: Same State NG 2) | 13.1 nM | 20.5 nM | 28.7 nM |  |  | 
16 | GCUGGAAACCACAUGAGGAUCACCCAUGUUCCGGAAACGGCGCAGGAUAUCUGUCCGAAAAGGUCAGAGAAGGGUGAAACCAGC [Fiskers NG3ss - 80] (Eterna round: R96, puzzle: Same State NG 3) | 600 nM | 387 nM | 346 nM |  |  | 

Row | Sequence | apparent KD of MS2 coat protein (input ligand: FMN 200 uM) | apparent KD of MS2 coat protein [1] | apparent KD of MS2 coat protein (input ligand: none) | apparent KD of MS2 coat protein [2] | apparent KD of MS2 coat protein [3] | apparent KD of MS2 coat protein [4]
17 | UCUUGGUUUUUGCUCGUUUUUUGUGUUGAACAUGAGGAUCACCCAUGUAUUGUACGGUCCGAUUUAAUGAUGGUCCA [JMF 39] (puzzle: Sensor for hsa-mir-208a) |  |  |  | 32.4 nM | 19.7 nM | 34.1 nM
18 | UAGUAUUAGCGAGGAUAUCGUAUGUUCAAUUUUUUAUAUUGUUUACAUGAGGAUCACCCAUGUUACGAGAAGGCGCAUGGGAUU [JR_SSNG2_Sub081] (Eterna round: R96, puzzle: Same State NG 2) |  | 371 nM |  |  |  | 
19 | AGUCCAGCGAAAGCUGGACAAAAGCAUGUACAUGAGGAUCACCCAUGUUUAUGUACAAGCUUUUUGCUCGUCUUAAA [JL mod - D95 - 11] (puzzle: Sensor for hsa-mir-208a) |  |  |  | 274 nM | 14.2 nM | 300 nM
20 | GAGUUACUAUCUCAGGAUAUCAUGUCAAAGACAUGAGGAUCACCCAUGUACCAGGAAACUGGUUAUGAGAAGGGAGAUAGUAACG [Mat - Same State 2 - Mod - D52] (puzzle: Same State 2) |  |  |  | 112 nM | 116 nM | 154 nM
21 | AGGUAACAUGAGGAUCACCCAUGUAAGGUGAACGUAGGAUAUCGAAGAGGUAGAGUAGGACGAGAAGGACGAGGAA [JR_SS1_Sub091] (puzzle: Same State 1) |  |  |  | 218 nM | 239 nM | 414 nM
22 | UACAAUCUAUCUGAGGAUAUCAUGAAAAAAACAUGAGGAUCACCCAUGUGCAGGAAAACUGCAUAUGAGAAGGCAGAUAGAUUGA [salish99_SS2_r3_005] (puzzle: Same State 2) |  |  |  | 27.4 nM | 585 nM | 721 nM
23 | AAUUUCUAGAGAGGAUAUGCAGAGGAUCACCCUGCAGAAGGCUCGAGAGAGAGGAUAUGCAGAGGAUCACCCUGCAGAAGGCUC [pwkr ssNG DX.29] (Eterna round: R96, puzzle: Same State NG 1) | 14.5 nM | 14.7 nM | 18.4 nM |  |  | 
24 | UGUUGUAUUACAGGAUAUCUAGUAUUUUUAUUCAGAGAAGGGUAUUCACAUGAGGAUCACCCAUGUAUAUACGAGGAAGUUGUG [JMF's solution 56] (Eterna round: R96, puzzle: Same State NG 1) |  | 34.1 nM |  |  |  | 
25 | AAGCUCGUGUGAGGAUAUGCCGCCGUUUCGGCUGCAGAAGGUGCUACGUUACAUGAGGAUCACCCAUGUCUCUGUUGUUUCGUA [salish99_SSNG1_r04_952] (Eterna round: R96, puzzle: Same State NG 1) |  | 37 nM |  |  |  | 
26 | UAAGUCAUGUAAGGAUAUGCAGCCGAAACGGCUGCAGAAGGUACUAUAAUUACAUGAGGAUCACCCAUGUUAUAAAAUUUAUAU [Mat - Same State NG 1 - JL mod - D77] (Eterna round: R96, puzzle: Same State NG 1) | 22.4 nM | 39 nM | 54.5 nM |  |  | 
27 | CGUCCAGCCUGAGCUGGACAAAAGCAUGUACAUGAGGAUCACCCAUGUUCAUGUACAAGCUUUUUGCUCGUCUUACG [salish99_208a_r3_093x] (puzzle: Sensor for hsa-mir-208a) |  |  |  | 507 nM | 16.7 nM | 617 nM
28 | GUGGAGGGUUGAGGAUAUUGAAUACAUAUGUUUAACAUGAGGAUCACCCAUGUGGGUUGCGGUAUCGAGAAGGUAAAUUGCUGG [salish99_SSNG2_r04_037] (Eterna round: R96, puzzle: Same State NG 2) |  | 72.1 nM |  |  |  | 
29 | GGAGCCGGCCUAGGAUAUUUCAUUAAAAUACAUGAGGAUCACCCAUGUAGGCCAGAAGGCCUUGGGAAGAAGGAGGUCGGCUCC [Loop Effect - U24,U29] (Eterna round: R96, puzzle: Same State NG 2) | 9.56 nM | 17.6 nM | 23.1 nM |  |  | 
30 | GCCCAGAGUAUAUGGGUACAAGCUUUUUGACAUGAGGAUCACCCAUGUACUCGUCUUAUGUGCAGUCCGUAGACUGC [JL-shm-2.19 Brourd mod] (puzzle: Sensor for hsa-mir-208a) |  |  |  | 18.2 nM | 27.3 nM | 17.4 nM
31 | AGGCUGAGUCGAGGAUAUUAUGGAUCCUCUAAUACAUGAGGAUCACCCAUGUAAUUAAUUAUACAUGAGAAGGCGACUCAGCCU [SSNG2/12-A4] (Eterna round: R96, puzzle: Same State NG 2) | 533 nM | 15 nM | 34.7 nM |  |  | 
32 | UUUAGCGUUACAGGAUAUGGUGAGGAUUACCCACUAGAAGGGUAAACAUGUGCGUCGGACAUGAGGAUCACCCAUGUAGGGCGU (Eterna round: R96, puzzle: Same State NG 1) | 28.4 nM | 21.6 nM | 32.4 nM |  |  | 
